Source: article PMC5526789, “Structure of Full-Length SMC and Rearrangements Required for Chromosome Organization” (Molecular Cell, 2017)

What was measured:
[1] = molecular target: BsSmcH-CC8(N634C) (Bacillus subtilis) (UniProt P51834); experiment: cross-linking; subunit exchange: equal amounts of two purified single-cysteine proteins mixed on ice, incubated at 37°C in 50 mM Tris-HCl pH 7.4, 200 mM NaCl, 1 mM TCEP; aliquots cross-linked with 200 µM BMOE (R558C to N634C at the hinge dimer interface); SDS-PAGE and Agilent 2100 Bioanalyzer; dimer to monomers
[2] = molecular target: Smc(D193C, mH, E1118Q)-HaloTag (Bacillus subtilis) (UniProt P51834); experiment: cross-linking; in vivo cysteine cross-linking: intact B. subtilis cells grown in SMG, 0.5 mM BMOE on ice; Smc-HaloTag labelled with HaloTag-TMR, SDS-PAGE, in-gel fluorescence; S152C and D193C report juxtaposed (disengaged) heads of the rod, K1151C ATP-engaged heads, A715C the arm/arm interface near the hinge
[3] = molecular target: Smc(S152C, mH, E1118Q)-HaloTag (Bacillus subtilis) (UniProt P51834); experiment: as above
[4] = molecular target: the molecule itself; experiment: crystal structure; BsSmcCC2, hanging drop, 4°C, PEG 3350, Tris pH 8, MPD, calcium acetate; space group P1, two dimers in the asymmetric unit

**Q.** Which half-life of the hinge dimer (subunit exchange) [1] does the source give for “BsSmcH-CC8(R558C) (from UniProt P51834 519-637) (domain or fragment)” here?
**A.** The half-life of the hinge dimer (subunit exchange) was 49 min.

**Q.** With “Smc(D193C, mH, E1118Q)-HaloTag (from UniProt P51834 1-1186) (natural protein)” as the molecule, how does the cross-linking relative to wild type (% of wild-type levels) [2] read?
**A.** Its cross-linking relative to wild type (% of wild-type levels) is 20.

**Q.** “Smc(S152C, mH, E1118Q)-HaloTag (from UniProt P51834 1-1186) (natural protein)” was tested. Which cross-linking relative to wild type (% of wild-type levels) [3] did it give?
**A.** The cross-linking relative to wild type (% of wild-type levels) was 20.

B1: BsSmcCC2 (domain or fragment, Bacillus subtilis)
chain: EKVQMAKEEELAESSAISAKEAKIEDTRDKIQALDESVDELQQVLLVTSEELEKLEGRKEVLKERKKNAVQNQEQLEEAIVQFQQKETVLKEELSKQEAVFETLQAEVKQLRAQVKEKQQALSLHNENVEEKIESGGSGGSRLTKQKQTQSSTKESLSNELTELKIAAAKKEQACKGEEDNLARLKKELTETELALKEAKEDLSFLTSEMSSSTSGEEKLEEAAKHKLNDKTKTIELIALRRDQRIKLQHGLDTYERELKEMKRLYKQKTTLLKDEEV
notes: Smc of Bacillus subtilis, residues 246-379 (N-terminal coiled-coil helix); linker; Smc of Bacillus subtilis, residues 793-929 (C-terminal coiled-coil helix); Selenomethionine-labelled protein was used for the SAD data; also called Smc middle segment; Bs Smc (246-379)/SGGSGGS/(793-929); source: E. coli BL21[DE3], purified (His-Trap, MonoQ, TEV cleavage, Superdex 200); not shown: His6, N-terminal, …
**Q.** Does B1 bind [4]?
**A.** Result: binds
